Reference: paper PMC5892457, “Characterisation of novel biomass degradation enzymes from the genome of Cellulomonas fimi” (Enzyme and Microbial Technology, 2018)

Columns and labels:
Test in all cases: purified protein
Format in all cases: biochemical, Cellulomonas fimi
[1] = substrate: O=[N+]([O-])c1ccccc1O[C@@H]1O[C@H](CO)[C@@H](O[C@@H]2O[C@H](CO)[C@@H](O)[C@H](O)[C@H]2O)[C@H](O)[C@H]1O; conditions: pH 6.0, 60 °C, partially purified enzyme, printed value differs between text and Table 3
[2] = substrate: O=[N+]([O-])c1ccc(O[C@@H]2O[C@@H](CO)[C@H](O)[C@H]2O)cc1; conditions: pH 6.5, 45 °C, partially purified enzyme
[3] = substrate: O=[N+]([O-])c1ccccc1O[C@@H]1OC[C@@H](O)[C@H](O)[C@H]1O; conditions: pH 6.0, 45 °C, partially purified enzyme, points at 20 mM and above excluded (substrate precipitation)

B1: XynF (Cellulomonas fimi ATCC 484) (protein)
chain: AGSTLQAAAAESGRYFGTAIAASRLSDGTYTGIANREFNMITAENEMKMDATEPNRGQFSYSNGDRIVNWARQNGKQVRGHALAWHSQQPGWMQNLSGTDLRNAMLNHVTQVATYYRGKIYAWDVVNEAYADGSSGARRDSNLQRTGNDWIEAAFRAARAADPNAKLCYNDYNTDNWSHAKTQGVYNMVKDFKARGVPIDCVGFQAHFNSGNPVPSNYHTTLQNFADLGVDVQITELDIEGSGSSQAQQYQGVVQACLAVSRCTGITVWGVRDTDSWRASGTPLLFDGSGNKKAAYTSVLNALNAGGTTTPTPNPTNPTPTPTPTNPGGGSPSCTATYSEGQKWGDRFNGTVTIRATTNISSWQSTVTVRSPQKIIATWNGSPTWDSSGNVMTMRPSGSGALAAGQSTSFGFTVQHNGNWTWPSVTCAAS
notes: ORF with TAT signal peptide and CBMII as BioBrick, E. coli JM109, untagged; partially purified (DEAE-, CM-Sepharose)
- Km [1]: 58 mM

B2: AfsB (Cellulomonas fimi ATCC 484) (protein)
chain: MFPVRLTLDPAFRVGPVRRRTFGSFVEHLGRCVYTGIHDPGHPTADADGFRKDVLELTRELGVSTVRYPGGNFVSGYRWEDGVGPVEQRPTRLDLAWHSLEPNTVGVDEFMRWAALAEVEPMMAVNLGTRGVQEALDLLDYCNGTAPTYWADQRRANGATDPYAIKMWCLGNEMDGPWQIGSKTAHEYGRLAAETGRAMKMVDPTLELVACGSSGVVMPTFGEWERIVLSEAYEQVDYVSAHAYYWEEDGDLGSFLASATDMDHFVESVTATADAVRAHKKVSKRIHISFDEWNVWYQKRAESRPPTGDDWPVAPVLLEDRYNVADAVVVGNLLISLLRHTDRVHAASLAQLVNVIAPIMTEPGGRSWKQTIFHPFAQASRYAAGDVLQVAIDAPTYETARYGDAALVDAVATRDPETGATTLFAVNRSLTEPALLEVDTRALPGLRVLDASTLSNPDHTWAATADDDTSVAPRANTTAEIRDGRLTVQVPPVSWNVVRLGA
notes: full ORF as BioBrick, E. coli JM109, untagged; partially purified (DEAE-Sepharose, phenyl-agarose)
- Km [2]: 6.8 mM

B3: BxyF (Cellulomonas fimi ATCC 484) (protein)
chain: MTRRLVPELEVRRHLVEDYADFTQIPEAVVARWKAPFGPPEDWDLTVVDHTVPGPHGPVPVRVYTPVGTPPDGGRACLVWMHGGAFSWGDLDMAEAHEVARGVAGRADVVVVSVDYRLCPVMPELGGTVGDRVDERGEPVRFPVPQDDCAAVLDAVRADPARFGVDAARVAIGGASAGAFLAAAVTLRAVEDGRAPWQTLLVYPMLHPRVPALGTELAEAVEAAPRALQLPAWMVEATNRTVLGREPEPSDDEAFPGLAARLEGFPPTYVENGELDAFRASGERFSTRLRAAGVDVVEVTRSGVPHGHLDWVGFGPARDTLDALAQRLRAPSAADRQALDELRVDGAPASDAPLHHVWNRCVGAGRANEALRADWQAHLREAVDVLGVRSVRFHGLFHDDMFVYRSTYGGGFAPPEVLPEPLITFSYVDMVFDALLDAGARPFVELGFMPRELATQTETLFWWKAHCSPPTDMAEWVRLVSETVRHWIERYGLDEVRQWRFEVWNEPNLVPHFWTGTRTEYFALYEATARALKAIDLQLRVGGPSTSVFVPDARYAGETYDHAAEFATGRAPDPDALDWQPVWVRELVDYCAERDLPLDFLSTHLYPTDYAADGTGSGVTAIHRHVDATEQDLRLLQELIAASPYPDAELHITEWSSSPSSRDRTHDTLFAATYITRAFLKGAALADSISYWTFTDIFEEGGAGLGPFHGGFGFVNEQGIHKPTFHAVAMLNRLGDRVVHQDEHGIITRSSGDGHVSAVFLNYPAEMGTRGVEQHDTYAAARAYREIGTARRVRRTVAGLEPGTVFQVEVLDWEHGNAAEAWHQMGEPLNLTRAQTTELKTVADDLRRWTITVPDSGVLEIDLDLPAWAVASVAPVTPTPSPTTNDAPSPTSSRQG
notes: as for B2
- Km [3]: 1.7 mM
